Columns and labels:
[1] = target: T1, FLAG-tagged human vascular endothelial growth factor-A (FLAG-hVEGF-A) (Homo sapiens, UniProt P15692-4); test: SPR; Biacore T200; mAb held by anti-hIgG capture antibodies amine-coupled to a CM5 chip; purified antigen serially diluted in HBS-EP+ (100, 33.3, 11.1, 3.7, 1.23, 0.412 nM) injected 240 s at 30 µL/min, 300 s dissociation; 1:1 Langmuir binding model with mass transfer; KD calculated as kd/ka; details: both partners purified
T1 construct: human vascular endothelial growth factor-A; The cell-based assays used bought recombinant hVEGF165 (Pepro Tech), not this construct

[2] = target: T2, histidine-tagged human semaphorin 3A fused with alkaline phosphatase (hSema3A-his-AP) (Homo sapiens, UniProt Q14563); test: ELISA; antigen immobilised on MaxiSorp 384-well plates (62.5 ng/well), blocked with 1% BSA in PBS; DT40 culture supernatants 1 h at room temperature; detected by anti-hIgG-Fc HRP; details: one partner purified
T2 construct: human semaphorin 3A; The expressing cells were a gift from Dr. Yoshio Goshima; the construct is not described further; source: HEK293 cells, stably expressed, purified (HisTrap Excel column, gel filtration)
T2 sequence (Q14563 21-771): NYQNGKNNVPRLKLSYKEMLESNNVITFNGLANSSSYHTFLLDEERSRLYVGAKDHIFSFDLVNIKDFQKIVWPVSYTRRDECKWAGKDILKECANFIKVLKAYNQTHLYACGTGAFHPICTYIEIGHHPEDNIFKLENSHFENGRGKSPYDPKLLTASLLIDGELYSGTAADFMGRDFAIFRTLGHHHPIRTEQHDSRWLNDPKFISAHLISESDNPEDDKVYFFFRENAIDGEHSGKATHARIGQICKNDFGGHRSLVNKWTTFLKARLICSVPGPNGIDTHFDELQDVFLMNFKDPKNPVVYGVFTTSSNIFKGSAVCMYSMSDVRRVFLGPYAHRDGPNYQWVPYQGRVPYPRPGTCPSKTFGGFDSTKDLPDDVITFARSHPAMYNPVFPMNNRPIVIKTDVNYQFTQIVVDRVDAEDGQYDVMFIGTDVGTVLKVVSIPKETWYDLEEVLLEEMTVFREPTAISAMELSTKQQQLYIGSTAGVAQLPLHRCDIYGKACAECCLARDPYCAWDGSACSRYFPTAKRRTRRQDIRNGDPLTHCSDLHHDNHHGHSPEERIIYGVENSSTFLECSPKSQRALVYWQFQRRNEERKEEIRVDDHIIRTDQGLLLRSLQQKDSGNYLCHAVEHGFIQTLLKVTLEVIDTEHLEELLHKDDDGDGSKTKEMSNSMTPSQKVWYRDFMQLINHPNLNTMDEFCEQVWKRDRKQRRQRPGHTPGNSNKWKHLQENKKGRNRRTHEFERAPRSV

Binder | Kd [1] [nM] | binding result [2]
anti-hVEGF-A clone A033AM-19 (affinity-matured from A033) (antibody, V domains shown, human IgG1 heavy chain constant region (CH1, hinge, CH2, CH3); as the light chain of m7 (identical LC); human Igλ constant region (hCλ) amplified from Ramos cell cDNA; Full-length human IgG1, λ; source: DT40 cells (subclone of A033 sorted after culture without TSA), secreted human IgG, purified) VH: EVELVQSGAEVKKPGSSVKVSCKASGGTFSDYSISWVRQAPGQGLEWMGGIIPIFGTPNYAQKFQGRVTITADESTSTAYMELSSLRSEDTAVYYCADGGAYCGGDCYSGYYYYGMDVWGQGTTVTVSS VL: QSALTQPASVSGSPGQSITISCTGTSSDVGGYNLVSWYQQHPGKAPKLMIYQDNNKRPSGVSNRFSGSKSGNTASLTISGLQAEDEADYYCSYTNDSNSQVFGGGTKLTVL | 0.0491 | –
anti-hSema3A clones from the L30H45(fff) single clone-derived library (three clones with identical HC and LC sequences) (antibody, V domains shown, human IgG1 heavy chain constant region (CH1, hinge, CH2, CH3); human Igλ constant region (hCλ) amplified from Ramos cell cDNA; Full-length human IgG1, λ; source: DT40 L30H45(fff) cells treated with TSA for 86 days, selected on hSema3A-his-AP beads, limiting dilution cloning) VH: EVQLLESGGGLVQPGGSLRLSCAASGFTFSSYWMSNEMSWVRQAPGKGLEWVSSISGGSTYYADSVKGRFTISRDNSKNTLYLQMNSLRAEDTAVYYCAKGYSGYDYYFDYWGQGTLVTVSS VL: QSALTQPASVSGSPGQSITISCTGTSSDVGGYNYVSWYQQNPGKAPKLMIYDVSNRPSGISNRFSGSKSGNTASLTISGLQADDEADYYCTSYTNDSNSQVFGGGTKLTVL | – | binds
